Results on four molecules are retold here after US20100196266A1 (published 2010).

Experiment [1] addresses T1, human leukocyte antigen-DR (HLA-DR) on human lymphoma and leukemia cell lines and human lymphocytes (human). Put plainly: flow cytometry, 697 (ALL) cells; no mAb 4.9.
For experiment [2], the target named is T1, human leukocyte antigen-DR (HLA-DR) on …. Put plainly: flow cytometry, REH (ALL) cells; no mAb 3.9.
Experiment [3] shares this target. Put plainly: flow cytometry, K562 (CML) cells; no mAb 3.2. (Flow cytometry measures light scatter and fluorescence of single cells or particles in a stream.)
The target is the same in experiment [4]. Put plainly: flow cytometry, MN60 (ALL) cells; no mAb 8.1.
Experiment [5] has the same target. Put plainly: flow cytometry, WAC (CLL) cells; no mAb 15.8.
Experiment [6] shares this target. Put plainly: flow cytometry, MEC-1 (CLL) cells; no mAb 4.7.
Experiment [7] shares this target. Put plainly: flow cytometry, GDM-1 (AML) cells; no mAb 16.8.
The target is the same in experiment [8]. Put plainly: flow cytometry, RS4;11 (ALL) cells; no mAb 6.4.
The target is the same in experiment [9]. Put plainly: flow cytometry, Jeko-1 (MCL) cells; no mAb 14.3.
Experiment [10] shares this target. Put plainly: flow cytometry, Kasumi-3 (AML) cells; no mAb 9.6.
The target is the same in experiment [11]. Put plainly: flow cytometry, Kasumi-1 (AML) cells; no mAb 18.2.
Experiment [12] has the same target. Put plainly: flow cytometry, Granta-519 (MCL) cells; no mAb 15.3.
Experiment [13] shares this target. Put plainly: indirect flow cytometry, Namalwa cells, FITC-GAM; none 2.91.
Experiment [14] shares this target. Put plainly: flow cytometry, HC-1 (hairy cell leukemia) cells; no mAb 4.8.
A further experiment addresses T2, human CD20 on cells (human, UniProt P11836 1-297).
T2 construct: whole, on cells
T2 sequence (looked up): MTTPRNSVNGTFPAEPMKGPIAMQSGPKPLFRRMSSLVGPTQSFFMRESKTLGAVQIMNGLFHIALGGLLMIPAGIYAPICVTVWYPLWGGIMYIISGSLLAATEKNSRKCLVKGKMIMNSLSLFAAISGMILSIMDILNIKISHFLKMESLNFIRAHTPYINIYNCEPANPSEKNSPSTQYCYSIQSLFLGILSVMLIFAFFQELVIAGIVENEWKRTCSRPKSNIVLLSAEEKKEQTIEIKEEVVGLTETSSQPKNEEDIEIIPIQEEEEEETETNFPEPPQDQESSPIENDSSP
Put plainly: indirect flow cytometry, Namalwa cells, FITC-GAM; none 2.91.

For experiment [15], the target named is T3, human CD74 on cells (human, UniProt P04233 1-296).
T3 construct: whole, on cells
T3 sequence (looked up): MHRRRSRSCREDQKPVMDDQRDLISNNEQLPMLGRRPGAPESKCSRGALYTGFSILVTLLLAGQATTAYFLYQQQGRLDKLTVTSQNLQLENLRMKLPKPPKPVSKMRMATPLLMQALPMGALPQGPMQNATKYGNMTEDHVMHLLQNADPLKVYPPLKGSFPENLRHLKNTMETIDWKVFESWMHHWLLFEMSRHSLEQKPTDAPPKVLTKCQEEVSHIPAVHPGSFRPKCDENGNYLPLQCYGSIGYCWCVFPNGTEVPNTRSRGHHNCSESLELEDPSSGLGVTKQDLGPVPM
Put plainly: flow cytometry, 697 (ALL) cells; no mAb 4.9.

Experiment [16] concerns the target T3, human CD74 on cells. Put plainly: flow cytometry, REH (ALL) cells; no mAb 3.9.
Experiment [17] addresses T3, human CD74 on cells. Put plainly: flow cytometry, K562 (CML) cells; no mAb 3.2.
Experiment [18] deals with T3, human CD74 on cells. Put plainly: flow cytometry, MN60 (ALL) cells; no mAb 8.1.
Experiment [19] has as its target T3, human CD74 on cells. Put plainly: flow cytometry, WAC (CLL) cells; no mAb 15.8.
Experiment [20] has as its target T3, human CD74 on cells. Put plainly: flow cytometry, MEC-1 (CLL) cells; no mAb 4.7.
The target of experiment [21] is T3, human CD74 on cells. Put plainly: flow cytometry, GDM-1 (AML) cells; no mAb 16.8.
Experiment [22] has as its target T3, human CD74 on cells. Put plainly: flow cytometry, RS4;11 (ALL) cells; no mAb 6.4.
The target of experiment [23] is T3, human CD74 on cells. Put plainly: flow cytometry, Jeko-1 (MCL) cells; no mAb 14.3.
For experiment [24], the target named is T3, human CD74 on cells. Put plainly: flow cytometry, Kasumi-3 (AML) cells; no mAb 9.6.
Experiment [25] deals with T3, human CD74 on cells. Put plainly: flow cytometry, Kasumi-1 (AML) cells; no mAb 18.2.
Experiment [26] deals with T3, human CD74 on cells. Put plainly: flow cytometry, Granta-519 (MCL) cells; no mAb 15.3.
In experiment [27] the target is T3, human CD74 on cells. Put plainly: indirect flow cytometry, Namalwa cells, FITC-GAM; none 2.91.
Experiment [28] concerns the target T3, human CD74 on cells. Put plainly: flow cytometry, HC-1 (hairy cell leukemia) cells; no mAb 4.8.
Experiment [29] concerns the target T4, human CD22 on cells (human, UniProt P20273 20-847).
T4 construct: whole, on cells
Put plainly: flow cytometry, 697 (ALL) cells; no mAb 4.9.

Experiment [30] has as its target T4, human CD22 on cells. Put plainly: flow cytometry, REH (ALL) cells; no mAb 3.9.
Experiment [31] addresses T4, human CD22 on cells. Put plainly: flow cytometry, K562 (CML) cells; no mAb 3.2.
Experiment [32] concerns the target T4, human CD22 on cells. Put plainly: flow cytometry, MN60 (ALL) cells; no mAb 8.1.
Experiment [33] has as its target T4, human CD22 on cells. Put plainly: flow cytometry, WAC (CLL) cells; no mAb 15.8.
Experiment [34] deals with T4, human CD22 on cells. Put plainly: flow cytometry, MEC-1 (CLL) cells; no mAb 4.7.
The target in experiment [35] is T4, human CD22 on cells. Put plainly: flow cytometry, GDM-1 (AML) cells; no mAb 16.8.
Experiment [36] has as its target T4, human CD22 on cells. Put plainly: flow cytometry, RS4;11 (ALL) cells; no mAb 6.4.
Experiment [37] concerns the target T4, human CD22 on cells. Put plainly: flow cytometry, Jeko-1 (MCL) cells; no mAb 14.3.
In experiment [38] the target is T4, human CD22 on cells. Put plainly: flow cytometry, Kasumi-3 (AML) cells; no mAb 9.6.
Experiment [39] deals with T4, human CD22 on cells. Put plainly: flow cytometry, Kasumi-1 (AML) cells; no mAb 18.2.
Experiment [40] has as its target T4, human CD22 on cells. Put plainly: flow cytometry, Granta-519 (MCL) cells; no mAb 15.3.
The target in experiment [41] is T4, human CD22 on cells. Put plainly: indirect flow cytometry, Namalwa cells, FITC-GAM; none 2.91.
Experiment [42] has as its target T4, human CD22 on cells. Put plainly: flow cytometry, HC-1 (hairy cell leukemia) cells; no mAb 4.8.

B1: murine monoclonal antibody L243 (mL243) (antibody, V domains shown)
VH: QIQLVQSGPELKKPGETVKISCKASGFTFTNYGMNWVKQAPGKGLKWMGWINTYTREPTYADDFKGRFAFSLETSASTAYLQINNLKNEDTAKYFCARDITAVVPTGFDYWGQGTTLTVSS
VL: DIQMTQSPASLSVSVGETVTITCRASENIYSNLAWYRQKQGKSPQLLVFAASNLADGVPSRFSGSGSGTQYSLKINSLQSEDFGDYYCQHFWTTPWAFGGGTNLEIKR
notes: Murine IgG2a from hybridoma ATCC HB55; also called murine L243; mL234
With B1, the “mean FL” value stood at 259 in experiment [1]; 2090 in experiment [2]; 4.9 in experiment [3]; 1220 in [4]; 788 in [5]; 1700 in experiment [6]. Moreover, the “mean FL” value stood at 1070 in experiment [7]; 152 in [8]; 1900 in experiment [9]; 565 in [10]; 24 in experiment [11]; 2110 in experiment [12]. The “mean FL” value in experiment [14] amounted to 515. In addition, the “GEO MEAN Fluorescence” value in experiment [13] was 595.

B2: 1F5 (murine anti-CD20 mAb) (antibody, V domains shown)
VH: QVQLRQPGAELVKPGASVKMSCKASGYTFTSYNMHWVKQTPGQGLEWIGAIYPGNGDTSYNQKFKGKATLTADKSSSTAYMQLSSLTSEDSAVYYCARSHYGSNYVDYFDYWGQGTTLTVSS
VL: DIVLSQSPAILSASPGEKVTMTCRASSSLSFMHWYQQKPGSSPKPWIYATSNLASGVPARFSGSGSGTSYSLTISRVEAEDAATYFCHQWSSNPLTFGAGTKLELK
On to B2, for which the “GEO MEAN Fluorescence” value with human CD20 on cells was 3.83.

B3: murine LL1 (anti-human CD74) (antibody, V domains shown)
VH: QIQLVQSGPELKKPGETVKVTCKTSGYTFTNYGVNWIKQTPGEGLQWMGWINPNTGEPTFDDDFKGRFAFSLESSASTAFLQISNLKNEDMGTYFCSRSRGKNEAWFAYWGQGTLVTVSE
VL: DVVMTQTPLSLPVSLGDQASISCRSSQSLVHRNGNTYLHWYLQKPGQSPKLLIYTVSNRFSGVPDRFSGSGSGTDFTLKISRVEAEDLGLYFCSQSSHVPPTFGAGTKLEI
Turning to B3, the “mean FL” value with human CD74 on cells [15] amounted to 20.6; with human CD74 on cells [16], 61.1; in the experiment with human CD74 on cells [17] it was 7; in the experiment with human CD74 on cells [18], 25.9; with human CD74 on cells [19] it was 43.6; with human CD74 on cells [20], 44.7. For the same molecule, the “mean FL” value in the experiment with human CD74 on cells [21] stood at 69.5; with human CD74 on cells [22] it was 24.3; in the experiment with human CD74 on cells [23], 32.7; with human CD74 on cells [24] it was 18.4; with human CD74 on cells [25], 23.8; with human CD74 on cells [26] it was 50.8. Further, the “mean FL” value with human CD74 on cells [28] is 36.7. For the same molecule, the “GEO MEAN Fluorescence” value in the experiment with human CD74 on cells [27] is 17.3.

B4: murine LL2 (anti-human CD22) (antibody, V domains shown)
VH: QVQLQESGAELSKPGASVKMSCKASGYTFTSYWLHWIKQRPGQGLEWIGYINPRNDYTEYNQNFKDKATLTADKSSSTAYMQLSSLTSEDSAVYYCARRDITTFYWGQGTTLTVSS
VL: DIQLTQSPSSLAVSAGENVTMSCKSSQSVLYSANHKNYLAWYQQKPGQSPKLLIYWASTRESGVPDRFTGSGSGTDFTLTISRVQVEDLAIYYCHQYLSSWTFGGGTKLEIKR
On to B4, for which the “mean FL” value with human CD22 on cells [29] amounted to 15.9; in the experiment with human CD22 on cells [30], 16.8; with human CD22 on cells [31] it was 4.3; with human CD22 on cells [32] it was 17.1; with human CD22 on cells [33], 20.1; in the experiment with human CD22 on cells [34], 49. The “mean FL” value with human CD22 on cells [35] worked out at 28.5; with human CD22 on cells [36], 20.9; in the experiment with human CD22 on cells [37], 25; with human CD22 on cells [38] it was 13.9; with human CD22 on cells [39], 20.9; with human CD22 on cells [40], 28.6. Further, the “mean FL” value with human CD22 on cells [42] amounted to 17.8. Moreover, in the experiment with human CD22 on cells [41], the “GEO MEAN Fluorescence” value is 10.5.
